Measurements published in article PMC8529090 (Computational and Structural Biotechnology Journal, 2021).

B1: recombinant L1CAM ectodomain (L1CAM-ED) (domain or fragment, human, UniProt P32004 20-1120, looked up)
chain: IQIPEEYEGHHVMEPPVITEQSPRRLVVFPTDDISLKCEASGKPEVQFRWTRDGVHFKPKEELGVTVYQSPHSGSFTITGNNSNFAQRFQGIYRCFASNKLGTAMSHEIRLMAEGAPKWPKETVKPVEVEEGESVVLPCNPPPSAEPLRIYWMNSKILHIKQDERVTMGQNGNLYFANVLTSDNHSDYICHAHFPGTRTIIQKEPIDLRVKATNSMIDRKPRLLFPTNSSSHLVALQGQPLVLECIAEGFPTPTIKWLRPSGPMPADRVTYQNHNKTLQLLKVGEEDDGEYRCLAENSLGSARHAYYVTVEAAPYWLHKPQSHLYGPGETARLDCQVQGRPQPEVTWRINGIPVEELAKDQKYRIQRGALILSNVQPSDTMVTQCEARNRHGLLLANAYIYVVQLPAKILTADNQTYMAVQGSTAYLLCKAFGAPVPSVQWLDEDGTTVLQDERFFPYANGTLGIRDLQANDTGRYFCLAANDQNNVTIMANLKVKDATQITQGPRSTIEKKGSRVTFTCQASFDPSLQPSITWRGDGRDLQELGDSDKYFIEDGRLVIHSLDYSDQGNYSCVASTELDVVESRAQLLVVGSPGPVPRLVLSDLHLLTQSQVRVSWSPAEDHNAPIEKYDIEFEDKEMAPEKWYSLGKVPGNQTSTTLKLSPYVHYTFRVTAINKYGPGEPSPVSETVVTPEAAPEKNPVDVKGEGNETTNMVITWKPLRWMDWNAPQVQYRVQWRPQGTRGPWQEQIVSDPFLVVSNTSTFVPYEIKVQAVNSQGKGPEPQVTIGYSGEDYPQAIPELEGIEILNSSAVLVKWRPVDLAQVKGHLRGYNVTYWREGSQRKHSKRHIHKDHVVVPANTTSVILSGLRPYSSYHLEVQAFNGRGSGPASEFTFSTPEGVPGHPEALHLECQSNTSLLLRWQPPLSHNGVLTGYVLSYHPLDEGGKGQLSFNLRDPELRTHNLTDLSPHLRYRFQLQATTKEGPGEAIVREGGTMALSGISDFGNISATAGENYSVVSWVPKEGQCNFRFHILFKALGEEKGGASLSPQYVSYNQSSYTQWDLQPDTDYEIHLFKERMFRHQMAVKTNGTGRVRLPPAGFATE

Assays:
SPR = target: the molecule itself; assay: SPR
[1] = target: B1; assay: SPR

Binder	Kd (SPR) [nM]	percent reduction of the RUmax of L1CAM-ED binding to immobilised L1CAM-ED [1] [%]
B1	17 ± 1.3	–
LKEEEGRITIRGGK [ROBO3-A peptide]	–	20
PIPGDSRVVVLPSG [DCC-A peptide]	–	20
FIPTDGRHFVSQTTG [CNTN2-A peptide]	–	20
